# Reference: the supplement of paper PMC9233669
# Variants at the floor of the assay were thinned out.
# Legend:
# biotinyl-Met-oxazolone = assay: self-aminoacylation, catalytic enhancement (BMO) (fold over background); higher = more active; k-Seq, kA / k0A0; sequences stand for … in GGGAAUGGAUCCACAUCUACGAAUUC…UUCACUGCAGACUUGACGAAGCUG
# How it was run: (§1)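 The uncatalyzed rate is the low-activity peak of a bimodal Gaussian fit, and catalytic enhancement is median kA divided by it. The kA values came from pseudo-first-order fits, with 1000 bootstraps, of per-sequence fraction reacted measured by streptavidin capture, triplicate qPCR and Illumina sequencing. Mutagenized RNA pools with a 21-nt variable region (0.43 μM) were reacted with each biotinyl-aminoacyl-oxazolone at 2–1250 μM in 50 μL HEPES/NaCl/KCl/MgCl2/CaCl2 buffer with 5% acetonitrile, pH 6.9–7.0, for 90 minutes at room temperature.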
# biotinyl-Leu-oxazolone = assay: self-aminoacylation, catalytic enhancement (BLO) (fold over background); higher = more active; k-Seq, kA / k0A0; sequences stand for … in GGGAAUGGAUCCACAUCUACGAAUUC…UUCACUGCAGACUUGACGAAGCUG
# How it was run: as §1
# biotinyl-Trp-oxazolone = assay: self-aminoacylation, catalytic enhancement (BWO) (fold over background); higher = more active; k-Seq, kA / k0A0; sequences stand for … in GGGAAUGGAUCCACAUCUACGAAUUC…UUCACUGCAGACUUGACGAAGCUG
# How it was run: as §1
# biotinyl-Ile-oxazolone = assay: self-aminoacylation, catalytic enhancement (BIO) (fold over background); higher = more active; k-Seq, kA / k0A0; sequences stand for … in GGGAAUGGAUCCACAUCUACGAAUUC…UUCACUGCAGACUUGACGAAGCUG
# How it was run: as §1
# biotinyl-Val-oxazolone = assay: self-aminoacylation, catalytic enhancement (BVO) (fold over background); higher = more active; k-Seq, kA / k0A0; sequences stand for … in GGGAAUGGAUCCACAUCUACGAAUUC…UUCACUGCAGACUUGACGAAGCUG
# How it was run: as §1
# biotinyl-Phe-oxazolone = assay: self-aminoacylation, catalytic enhancement (BFO) (fold over background); higher = more active; k-Seq, kA / k0A0; sequences stand for … in GGGAAUGGAUCCACAUCUACGAAUUC…UUCACUGCAGACUUGACGAAGCUG
# How it was run: as §1
Sequence,self-aminoacylation (biotinyl-Met-oxazolone),self-aminoacylation (biotinyl-Leu-oxazolone),self-aminoacylation (biotinyl-Trp-oxazolone),self-aminoacylation (biotinyl-Ile-oxazolone),self-aminoacylation (biotinyl-Val-oxazolone),self-aminoacylation (biotinyl-Phe-oxazolone)
AUCACCCUGGUCACCGAGUGA [Fam2.1 aminoacylation ribozyme variant],17.5,15.4,13.2,6.34,5.92,96.6
AUCACCCUGGUCAUCGAAUGA [Fam2.1 aminoacylation ribozyme variant],1.13,1.29,0.777,1.26,1.41,0.93
AUCACCGUGGUCAUCGAGUGA [Fam2.1 aminoacylation ribozyme variant],7.05,6.15,7.75,3.99,4.01,52.5
AUCACGCUGGUCAUCGAGUGA [Fam2.1 aminoacylation ribozyme variant],6.1,5.91,6.96,4.36,4.4,33.1
AUCCAACUAGGUCAUCGGGUG [Fam2.2 aminoacylation ribozyme variant],8.53,9.99,8.01,5.82,4.93,80.9
AUCCACCAAGGUCAUCGGGUG [Fam2.2 aminoacylation ribozyme variant],9.18,10.1,7.83,5.16,6.37,68.2
AUCCACCUAGAUCAUCGGGUG [Fam2.2 aminoacylation ribozyme variant],3.25,4.88,4.45,3.37,3.26,23.2
AUCCACCUAGCUCAUCGGGUG [Fam2.2 aminoacylation ribozyme variant],3.28,2.55,2.55,2.2,2.89,23.3
AUCCACCUAGGGCAUCGGGUG [Fam2.2 aminoacylation ribozyme variant],4.46,5.15,4.35,3.45,4.02,22.1
AUCCACCUAGGUCAACGGGUG [Fam2.2 aminoacylation ribozyme variant],3.17,4.15,4.49,2.4,3.34,30.3
AUCCACCUAGGUCACCGGGUG [Fam2.2 aminoacylation ribozyme variant],5.52,6.1,6.67,4.14,4.47,40.4
AUCCACCUAGGUCAUCGAGUG [Fam2.2 aminoacylation ribozyme variant],7.89,10.3,5.78,6.55,5.17,17.4
AUCCACCUAGGUCAUCGGAUG [Fam2.2 aminoacylation ribozyme variant],1.19,1.11,1.04,1.4,1.65,0.726
AUCCACCUAGGUCAUCGGCUG [Fam2.2 aminoacylation ribozyme variant],1.72,2.87,2.44,1.95,2.29,9.73
AUCCACCUAGGUCUUCGGGUG [Fam2.2 aminoacylation ribozyme variant],5.09,6.56,6.45,4.4,6.01,37.1
AUCCACCUAGGUGAUCGGGUG [Fam2.2 aminoacylation ribozyme variant],6.1,5.68,5.98,4.38,4.45,35.5
AUCCACCUAGGUUAUCGGGUG [Fam2.2 aminoacylation ribozyme variant],4.13,4.84,5.62,3.44,4.45,32.1
AUCCACCUAUGUCAUCGGGUG [Fam2.2 aminoacylation ribozyme variant],6.38,7.91,5.8,4.42,4.12,49.9
AUCCAUCUAGGUCAUCGGGUG [Fam2.2 aminoacylation ribozyme variant],7.36,6.36,5.63,4.35,3.94,29.6
AUCGCCCUGGUCAUCGAGUGA [Fam2.1 aminoacylation ribozyme variant],16.5,16,17.8,7.09,7.32,98.5
AUCUACCUAGGUCAUCGGGUG [Fam2.2 aminoacylation ribozyme variant],10,12.1,8.66,6.54,6.18,51.1
AUCUCCCUGGUCAUCGAGUGA [Fam2.1 aminoacylation ribozyme variant],9.05,9.06,10.2,4.57,4.7,27.2
AUGACACUGGUCAUCGAGUGA [Fam2.1 aminoacylation ribozyme variant],5.48,6.42,6.47,3.42,3.05,25.8
AUGACCCUGGACAUCGAGUGA [Fam2.1 aminoacylation ribozyme variant],5.12,3.95,5.26,2.27,2.11,15.9
AUGACCCUGGUCACCGAGUGA [Fam2.1 aminoacylation ribozyme variant],10.5,11.7,9.23,3.68,5.03,45.5
AUGACCCUGGUCAUCCAGUGA [Fam2.1 aminoacylation ribozyme variant],6.57,7.02,7.7,3.84,3.16,38.6

Sequence,self-aminoacylation (biotinyl-Met-oxazolone),self-aminoacylation (biotinyl-Leu-oxazolone),self-aminoacylation (biotinyl-Trp-oxazolone),self-aminoacylation (biotinyl-Ile-oxazolone),self-aminoacylation (biotinyl-Val-oxazolone),self-aminoacylation (biotinyl-Phe-oxazolone)
AUGACCCUGGUCAUCGAGUAA [Fam2.1 aminoacylation ribozyme variant],10.1,10.2,8.31,3.71,3.51,31.5
AUGACCCUGGUCAUCGAGUGU [Fam2.1 aminoacylation ribozyme variant],89.5,85.3,64.9,20.6,23.7,692
AUGACCCUGGUCCUCGAGUGA [Fam2.1 aminoacylation ribozyme variant],3.2,3.2,3.81,1.88,1.77,22.1
AUGACCCUGGUUAUCGAGUGA [Fam2.1 aminoacylation ribozyme variant],6.78,7.14,8.52,3.39,3.36,15.5
AUGACCGUGGUCAUCGAGUGA [Fam2.1 aminoacylation ribozyme variant],6.71,7.27,7.37,3.34,3.22,39.7
AUGCAACUAGGUCAUCGGGUG [Fam2.2 aminoacylation ribozyme variant],8.13,9.82,8.26,6.38,5.58,56.2
AUGCACAUAGGUCAUCGGGUG [Fam2.2 aminoacylation ribozyme variant],10.5,10.2,10.4,6.5,6.08,73.3
AUGCACCUAGGUCAUCGGGCG [Fam2.2 aminoacylation ribozyme variant],2.37,3.22,2.53,2.08,2.47,13.5
AUGCACCUAGGUCAUUGGGUG [Fam2.2 aminoacylation ribozyme variant],2.3,2.53,2.72,2.33,2.16,16.6
AUGCACCUAGGUCUUCGGGUG [Fam2.2 aminoacylation ribozyme variant],4.93,4.14,5.59,3.64,4.2,40
AUGCACCUAGGUUAUCGGGUG [Fam2.2 aminoacylation ribozyme variant],3.37,4.46,4.81,3.4,3.11,32.7
AUGCAGCUAGGUCAUCGGGUG [Fam2.2 aminoacylation ribozyme variant],3.73,4.37,3.92,2.95,3.61,24.9
AUGCUUGCUAAUAGUCGCAAG [Fam3.1 aminoacylation ribozyme variant],1.61,1.33,1.99,1.81,1.32,3.19
AUGUUUGAUAAUAGUCGCAAG [Fam3.1 aminoacylation ribozyme variant],1.35,1.09,1.45,1.65,1.17,1.59
AUGUUUGCUAACAGUCGCAAG [Fam3.1 aminoacylation ribozyme variant],1.61,1.49,3.34,1.59,1.43,5.92
AUGUUUGCUAAUAGUCGCUAG [Fam3.1 aminoacylation ribozyme variant],1.06,1.06,1.28,1.19,1.08,1.82
AUUAACCUACGUCAUCGGGUG [Fam2.2 aminoacylation ribozyme variant],6.52,8.3,5.8,3.99,3.84,47.5
AUUAACCUAGGGCAUCGGGUG [Fam2.2 aminoacylation ribozyme variant],2.86,3.09,2.76,2.45,2.15,14.1
AUUAACCUAGGUCAUCCGGUG [Fam2.2 aminoacylation ribozyme variant],5.02,4.91,5.68,3.59,3.29,29.5
AUUAACCUAGGUCAUCGGCUG [Fam2.2 aminoacylation ribozyme variant],1.49,1.35,1.57,1.35,1.59,4.37
AUUAACCUAGGUCAUCGGGAG [Fam2.2 aminoacylation ribozyme variant],0.94,1.34,0.979,1.14,1.14,1.18
AUUAACCUAGGUCCUCGGGUG [Fam2.2 aminoacylation ribozyme variant],4.07,4.72,3.09,2.58,2.81,18
AUUAACCUAGGUUAUCGGGUG [Fam2.2 aminoacylation ribozyme variant],3.1,3.46,2.84,2.5,2.19,17.9
AUUAACCUGCUCAUCGAGUGA [Fam2.1 aminoacylation ribozyme variant],2.38,2.5,2.54,1.55,1.86,2.51
AUUAACCUGGUCAUCGAAUGA [Fam2.1 aminoacylation ribozyme variant],0.959,1.09,0.742,1.07,1.07,0.933
